Experimental data: patent US12312417B2, “Binding proteins 1” (Nucleus Therapeutics Pty. Ltd., priority 2017, dated 2025)
Numbering of substitutions follows the chain as printed.

B1: Variant 14: cell penetrating anti-DNA humanized di-scFv, SEQ ID NO: 42 (protein)
scFv: DIQMTQSPSSLSASLGDRATITCRASKTVSTSSYSYMHWYQQKPGQPPKLLIKYASYLESGVPSRFSGSGSGTDFTLTISSLQPEDAATYYCQHSREFPWTFGGGTKVEIKRADAAPGGGGSGGGGSGGGGSEVQLVESGGGVVQPGGSLRLSCAASGFTFSNYGMHWVRQAPEKGLEWVSYISSGSSTIYYADSVKGRFTISRDNSKNTLYLQMNSLRAEDTAVYYCARRGLLLDYWGQGTTVTVSSASTKGPSVFPLAPLESSGSDIQMTQSPSSLSASLGDRATITCRASKTVSTSSYSYMHWYQQKPGQPPKLLIKYASYLESGVPSRFSGSGSGTDFTLTISSLQPEDAATYYCQHSREFPWTFGGGTKVEIKRADAAPGGGGSGGGGSGGGGSEVQLVESGGGVVQPGGSLRLSCAASGFTFSNYGMHWVRQAPEKGLEWVSYISSGSSTIYYADSVKGRFTISRDNSKNTLYLQMNSLRAEDTAVYYCARRGLLLDYWGQGTTVTVSS
modifications: Variant 14
B2: Variant 15: cell penetrating anti-DNA humanized di-scFv, SEQ ID NO: 43 (protein)
scFv: B1 scFv with V143D, Q145K, V410D, Q412K
modifications: Variant 15
B3: Variant 12: cell penetrating anti-DNA humanized di-scFv, SEQ ID NO: 40 (protein)
scFv: DIQMTQSPSSLSASVGDRVTITCRASKSVSTSSYSYMHWYQQKPGKAPKLLIKYASYLESGVPSRFSGSGSGTDFTLTISSLQPEDFATYYCQHSREFPWTFGQGTKVEIKRADAAPGGGGSGGGGSGGGGSEVQLVESGGGDVKPGGSLRLSCAASGFTFSNYGMHWVRQAPEKGLEWVSYISSSSSTIYYADSVKGRFTISRDNSKNTLYLQMNSLRAEDTAVYYCARRGLLLDYWGQGTTVTVSSASTKGPSVFPLAPLESSGSDIQMTQSPSSLSASVGDRVTITCRASKSVSTSSYSYMHWYQQKPGKAPKLLIKYASYLESGVPSRFSGSGSGTDFTLTISSLQPEDFATYYCQHSREFPWTFGQGTKVEIKRADAAPGGGGSGGGGSGGGGSEVQLVESGGGDVKPGGSLRLSCAASGFTFSNYGMHWVRQAPEKGLEWVSYISSSSSTIYYADSVKGRFTISRDNSKNTLYLQMNSLRAEDTAVYYCARRGLLLDYWGQGTTVTVSS
modifications: Variant 12
B4: Variant 10: cell penetrating anti-DNA humanized di-scFv, SEQ ID NO: 38 (protein)
scFv: B3 scFv with D143L, K145Q, E174G, S207A, T210S, D410L, K412Q, E441G, S474A, T477S
modifications: Variant 10
B5: Variant 11: cell penetrating anti-DNA humanized di-scFv, SEQ ID NO: 39 (protein)
scFv: B3 scFv with D143V, K145Q, D410V, K412Q
modifications: Variant 11
B6: Variant 16: cell penetrating anti-DNA humanized di-scFv, SEQ ID NO: 44 (protein)
scFv: DIQMTQSPSSLSASVGDRVTITCRASKTVSTSSYSYMHWYQQKPGKAPKLLIKYASYLESGVPSRFSGSGSGTDFTLTISSLQPEDFATYYCQHSREFPWTFGQGTKVEIKRADAAPGGGGSGGGGSGGGGSEVQLVESGGGLVQPGGSLRLSCAASGFTFSNYGMHWVRQAPGKGLEWVSYISSGSSTIYYADSVKGRFTISRDNAKNSLYLQMNSLRAEDTAVYYCARRGLLLDYWGQGTTVTVSSASTKGPSVFPLAPLESSGSDIQMTQSPSSLSASVGDRVTITCRASKTVSTSSYSYMHWYQQKPGKAPKLLIKYASYLESGVPSRFSGSGSGTDFTLTISSLQPEDFATYYCQHSREFPWTFGQGTKVEIKRADAAPGGGGSGGGGSGGGGSEVQLVESGGGLVQPGGSLRLSCAASGFTFSNYGMHWVRQAPGKGLEWVSYISSGSSTIYYADSVKGRFTISRDNAKNSLYLQMNSLRAEDTAVYYCARRGLLLDYWGQGTTVTVSS
modifications: Variant 16

What was measured:
Assay type in all cases: cell-based
[1] = test system: HDR-proficient DLD1 cells; experiment: Cell death in HDR-proficient cells, di-scFv with PARP inhibitor; conditions: 5 nM olaparib, 10 μM di-scFv, or both
Experimental: Homology-directed repair (HDR) deficient BRCA2-DLD1 cells and PTEN-U251 cells were treated with control, 5 nM olaparib, 10 μM di-scFv, or 10 μM di-scFv+5 nM olaparib. Surviving fraction was determined by colony formation assay.
It was then determined whether the combination of di-scFv and olaparib is simply universally cytotoxic, regardless of DNA repair status. To evaluate this possibility, HDR-proficient DLD1 cells were treated with the above regimen to confirm selectivity of combination therapy to HDR-deficient malignant cells.

DLD1 colon cancer cells = experiment: Alkaline phosphatase-based survey of nuclear penetration; conditions: cells treated for one hour; right shift of histogram peak
Experimental: DLD1 colon cancer cells were treated with control media or each of the indicated variants for one hour. Cells were then washed, fixed, blocked with 1% BSA-TBST, and then probed with protein L for one hour. Cells were then washed and incubated with an anti-protein L primary antibody for one hour. After another round of washing cells were incubated with an alkaline phosphatase-conjugated secondary antibody for one hour. Finally, cells were washed and signal was developed by addition of NBT/BCIP. Dark stain indicates location of the variants.
Raw integrated density values reflecting nuclear alkaline phosphatase staining in the DLD1 cells from the experiment in FIG. 3 were obtained by analysis using ImageJ Boxplots of distributions of values are presented for each variant in FIG. 4.
Histogram plots of cell counts versus nuclear staining intensity (represented as reciprocal intensity in arbitrary units) are shown in FIG. 5.

[2] = test system: PTEN-deficient U251 human glioma cells; experiment: Phospho-53BP1 foci accumulation (DNA damage); conditions: PTEN-deficient U251; twenty-four hours; vs control media
Experimental: A matched pair of PTEN-proficient and deficient U251 human glioma cells were treated with control media or media containing Variant 10, 11, 13, 15, or 16 for twenty-four hours. Cells were then washed, fixed, blocked, and then probed with an anti-phospho-53BP1 antibody overnight. Cells were then washed and incubated with an AlexaFluor555-conjugated secondary antibody. Finally, cells were washed, counterstained with DAPI, and visualized under a fluorescence microscope. Images were saved and evaluated by CellProfiler to determine mean number of phospho-53BP1 foci per cell.
A matched pair of BRCA2-proficient and deficient DLD1 colon cancer cells and PTEN-proficient and deficient U251 human glioma cells were treated with control media or media containing 10 μM di-scFv variant 13 (SEQ ID NO: 41), 5 nM olaparib, or combination treatment.

[3] = test system: BRCA2-deficient DLD1 colon cancer cells; experiment: Cell viability by Trypan blue exclusion assay; conditions: 7 days later
Experimental: (§1) Next, a matched pair of BRCA2-proficient and deficient DLD1 colon cancer cells was treated with control media or media containing Variants 10, 13, 15, or 16. Cell viability was determined 7 days later by Trypan blue exclusion assay and by direct visualization of cell morphology by light microscopy. […] Representative light microscope images shown the changes in morphology in the BRCA2-deficient cancer cells treated with the variants are shown in FIG. 10, Panel A. Quantitative analysis of the cell survival by Trypan blue exclusion assay is shown in FIG. 10, Panel B.

[4] = test system: BRCA2-proficient DLD1 colon cancer cells; experiment: Cell viability by Trypan blue exclusion assay; conditions: 7 days later
Experimental: as §1

[5] = test system: PTEN-deficient U87 human glioma cells; experiment: Cell viability by Trypan blue exclusion assay; conditions: 7 days after treatment; relative to control treated cells
Experimental: Cell viability of PTEN-deficient U87 human glioma cells was also assessed following treatment with control media or media containing Variants 10, 13, 15, or 16. Cell viability was determined 7 days after treatment using Trypan blue exclusion assay and by direct visualization of cell morphology by light microscopy.

Row | Molecule | cell death [1] | nuclear penetration relative to the yeast prototype (histogram of cell counts versus nuclear staining intensity) (DLD1 colon cancer cells) | mean number of phospho-53BP1 foci per cell [2] | cell viability / toxicity [3] | cell viability / toxicity [4] | cell viability [5]
1 | O=C(c1cc(Cc2n[nH]c(=O)c3ccccc23)ccc1F)N1CCN(C(=O)C2CC2)CC1 [olaparib, reference compound] | remain resistant | – | – | – | – | –
2 | B1 | – | Most of the variants, other than variants 12 and 14, showed improved nuclear penetration | – | – | – | –
3 | B2 | – | notable right shift and narrowing of distributions | increased the number of foci | killed by the variants | not toxic | reductions in cell viability
4 | B3 | – | Most of the variants, other than variants 12 and 14, showed improved nuclear penetration | – | – | – | –
5 | B4 | – | – | increased the number of foci | killed by the variants | not toxic | reductions in cell viability
6 | B5 | – | – | increased the number of foci | – | – | –
7 | B6 | – | – | increased the number of foci | killed by the variants | not toxic | reductions in cell viability
